1 molecule from paper PMC8402609 (Vaccines, 2021) can be followed below.

Holding throughout (experiment): SPR
Conditions in all cases: both partners purified

Test [1] addresses T1, 3D7-MSP2(207-222) (WT) 16-residue peptide (Plasmodium falciparum 3D7).
T1 construct: source: synthetic peptide (Fmoc solid phase, in-house, reverse-phase purified)
T1 chain: SQKECTDGNKENCGAA

Test [2] concerns the target T2, 8-residue peptide 3D7-MSP2(215-222), minimal 4D11 epitope (Plasmodium falciparum 3D7).
T2 construct: source: synthetic peptide
T2 chain: NKENCGAA

For test [3], the target named is T3, 3D7 merozoite surface protein 2 (MSP2) (Plasmodium falciparum 3D7, UniProt P50498).
T3 construct: also called 3D7 MSP2; 3D7-MSP2
T3 sequence (P50498 21-246): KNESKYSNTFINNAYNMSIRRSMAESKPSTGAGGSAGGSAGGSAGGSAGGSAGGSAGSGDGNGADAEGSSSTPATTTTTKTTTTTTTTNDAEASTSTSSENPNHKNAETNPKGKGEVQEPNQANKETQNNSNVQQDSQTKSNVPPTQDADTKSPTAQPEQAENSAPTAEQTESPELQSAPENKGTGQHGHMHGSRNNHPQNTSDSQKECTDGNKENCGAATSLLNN

B1: mouse monoclonal antibody 4D11 IgG (antibody, V domains shown)
VH: QVRLQQSGAELVKPGASVKLSCTASGFNIKDDYMHWVKQRPEQGLEWIGRIDPANGNTQYAPKFQDKATITADTSSNTAYLQLTSLTSEDTAVYYCARGGLLRWGQGTSVTVSS
VL: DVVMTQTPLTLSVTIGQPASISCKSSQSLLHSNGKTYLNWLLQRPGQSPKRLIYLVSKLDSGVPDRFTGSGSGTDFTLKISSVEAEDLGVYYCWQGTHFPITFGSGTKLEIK
On to B1, for which the Kd in test [1] is 900 nM; in test [2] it was 240 nM. Further, the binding result in test [3] is given as “binds”.

The Kd is the constant that tells how readily two partners part at equilibrium. Read a high Kd as a looser complex.
